Results from patent US10358663B2, “Method of production of 2,4-dihydroxybutyric acid” (ADISSEO FRANCE S.A.S., priority 2010, dated 2019).
Substitutions are numbered along the chain they refer to. Names and notes keep the numbering of the source.

What was measured:
[1] = substrate: N[C@@H](CC(=O)O)C(=O)O; assay: Aspartate kinase assay (ADP production coupled to NADH oxidation), His-tagged wild-type LysC; assay type: biochemical, Escherichia coli; details: other: His-tagged LysC, Eadie and Hofstee, pH 7.5, 30° C.
Experimental: Enzymatic assay: Aspartate or malate kinase activities were assayed by coupling ADP production in the kinase reactions to NADH oxidation in the presence of phosphoenolpyruvate, pyruvate kinase, and lactate dehydrogenase.
Aspartate (or Malate) Kinase aspartate (or malate)+ATP→4-phospho-(L)-aspartate (or 4-phospho-(L)-malate)+ADP
The assay mixture contained 50 mM Hepes (pH 7.5), 50 mM KCl, 5 mM MgCl2, 0.24 mM NADH, 0.96 mM ATP, 0.96 mM PEP, 9 μg/mL of lactate dehydrogenase (Sigma, L2500), 12.4 μg/mL pyruvate kinase (Sigma, P1506), and appropriate amounts of purified aspartate (malate) kinase. Reactions were started by adding 50 mM (L)-aspartate or (L)-malate. Enzymatic assays were carried out at 30° C. in 96-well flat bottomed microtiter plates in a final volume of 250 μL. The reactions were followed by the characteristic absorption of NADH at 340 nm in a microplate reader (BioRad 680XR).
Maximum activities for LysC and Hom3 on aspartate were 4.5 μmol/(min*mgprot) and 1.6 μmol/(min*mgprot), respectively. The Km value for aspartate was estimated with the method of Eadie and Hofstee by measuring initial reaction rates (v) at different substrate concentrations (c) and by extracting the slope of the v versus v/c plot. […]

[2] = substrate: O=CC[C@H](O)C(=O)O; assay: Malate semialdehyde reductase assay, Ms-SSR N43H; assay type: biochemical, Metallosphaera sedula; details: other: malate semialdehyde, pH 7.5, 30° C.
Experimental: (§1) Test for Malate Semialdehyde Reductase Activity: Reaction: (L)-Malate semialdehyde+NAD(P)H→(L)-2,4-dihydroxybutyric acid+NAD(P)
(§2) The assay mixture contained 200 mM Hepes (pH 7.5), 50 mM KCl, 5 mM MgCl2, 0.24 mM NADH or NADPH, and appropriate amounts of purified enzyme. Reactions were started by adding 10 mM (L)-malate semialdehyde (malate semialdehyde was prepared freshly for each test, see Example 4). Enzymatic assays were carried out at 30° C. in 96-well flat bottomed microtiter plates in a final volume of 250 μL. The reactions were followed by the characteristic absorption of NAD(P)H at 340 nm in a microplate reader (BioRad 680XR).
(§3) Site-directed mutagenesis was carried out using the oligonucleotide pairs listed in Table 8 and the pMs-SSR plasmid as the template. Point mutations to change the amino acid sequences were introduced by PCR (Phusion 1U, HF buffer 20% (v/v), dNTPs 2.5 mM, direct and reverse primers 1 μM each, template plasmid 200 ng, water). When possible, plasmids created by PCR contained new restriction sites (introduced using silent mutations) in addition to the functional mutation to facilitate identification of mutated clones. The PCR products were digested by DpnI at 37° C. for 1 h to remove template DNA, and transformed into NEB 5-alpha competent E. coli cells (NEB). […]

[3] = substrate: O=CC[C@H](O)C(=O)O; assay: Malate semialdehyde reductase assay, Ms-SSR wild type; assay type: biochemical, Metallosphaera sedula; details: other: malate semialdehyde, pH 7.5, 30° C.
Experimental: as §1, §2

[4] = substrate: O=CC[C@H](O)C(=O)O; assay: Malate semialdehyde reductase assay, Ms-SSR H39R; assay type: biochemical, Metallosphaera sedula; details: other: malate semialdehyde, pH 7.5, 30° C.
Experimental: as §1, §2, §3

[5] = substrate: O=CC[C@H](O)C(=O)O; assay: Malate semialdehyde reductase assay, Ms-SSR H39R N43H; assay type: biochemical, Metallosphaera sedula; details: other: malate semialdehyde, pH 7.5, 30° C.
Experimental: as §1, §2, §3

[6] = substrate: O=CC[C@H](O)C(=O)O; assay: Malate semialdehyde dehydrogenase assay, Asd E241Q T136N; assay type: biochemical, Escherichia coli; details: other: malate semialdehyde, reverse biosynthetic direction, pH 9, 0.25 mM NADP, 30° C.
Experimental: (§4) Enzymatic assay: Aspartate or malate semialdehyde dehydrogenase activities were assayed in the reverse biosynthetic direction by following the reduction of NADP during the oxidation of aspartate or malate semialdehyde to 4-phospho-(L)-aspartate or 4-phospho-(L)-malate, respectively (Roberts et al., 2003). (L)-aspartate semialdehyde (or (L)-malate semialdehyde)+NADP+Pi→4-phospho-(L)-aspartate (or 4-phospho-(L)-malate)+NADPH
(§5) The assay mixture contained 200 mM Hepes (pH 9), 50 mM K2HPO4, 0.25 mM NADP. Reactions were started by adding (L)-aspartate semialdehyde or (L)-malate semialdehyde. (L)-Aspartate semialdehyde was added in the form of L-aspartic acid β-semialdehyde hydrate trifluoroacetate (maintained at pH3 to prevent degradation) which is a suitable substrate for enzymatic tests of homoserine dehydrogenase and aspartate semialdehyde dehysrogenase (Roberts et al., 2003). Unstable malate semialdehyde was produced freshly prior to the enzymatic tests by the deprotection of the stable malate semialdehyde derivative 2-[(4S)-2,2-dimethyl-5-oxo-1,3-dioxolan-4-yl]acetaldehyde (DMODA). […]
Enzymatic assays were carried out in 96-well flat bottomed microtiter plates in a final volume of 250 μL at 30° C. The reactions were followed by the characteristic absorption of NADPH at 340 nm in a microplate reader (BioRad 680XR). […]

[7] = substrate: O=CC[C@H](O)C(=O)O; assay: Malate semialdehyde dehydrogenase assay, Asd E241G; assay type: biochemical, Escherichia coli; details: other: malate semialdehyde, reverse biosynthetic direction, pH 9, 0.25 mM NADP, 30° C.
Experimental: as §4, §5
(§6) Enzymatic assays were carried out in 96-well flat bottomed microtiter plates in a final volume of 250 μL at 30° C. The reactions were followed by the characteristic absorption of NADPH at 340 nm in a microplate reader (BioRad 680XR).

[8] = substrate: O=CC[C@H](O)C(=O)O; assay: Malate semialdehyde dehydrogenase assay, Asd E241A; assay type: biochemical, Escherichia coli; details: other: malate semialdehyde, reverse biosynthetic direction, pH 9, 0.25 mM NADP, 30° C.
Experimental: as §4, §5, §6

[9] = substrate: O=CC[C@H](O)C(=O)O; assay: Malate semialdehyde dehydrogenase assay, Asd E241H; assay type: biochemical, Escherichia coli; details: other: malate semialdehyde, reverse biosynthetic direction, pH 9, 0.25 mM NADP, 30° C.
Experimental: as §4, §5, §6

[10] = substrate: O=CC[C@H](O)C(=O)O; assay: Malate semialdehyde dehydrogenase assay, Asd E241M; assay type: biochemical, Escherichia coli; details: other: malate semialdehyde, reverse biosynthetic direction, pH 9, 0.25 mM NADP, 30° C.
Experimental: as §4, §5, §6

[11] = substrate: O=CC[C@H](O)C(=O)O; assay: Malate semialdehyde dehydrogenase assay, Asd E241Q; assay type: biochemical, Escherichia coli; details: other: malate semialdehyde, reverse biosynthetic direction, pH 9, 0.25 mM NADP, 30° C.
Experimental: as §4, §5, §6

[12] = substrate: O=CC[C@H](O)C(=O)O; assay: Malate semialdehyde dehydrogenase assay, Asd E241C; assay type: biochemical, Escherichia coli; details: other: malate semialdehyde, reverse biosynthetic direction, pH 9, 0.25 mM NADP, 30° C.
Experimental: as §4, §5, §6

[13] = substrate: O=CC[C@H](O)C(=O)O; assay: Malate semialdehyde dehydrogenase assay, Asd E241I; assay type: biochemical, Escherichia coli; details: other: malate semialdehyde, reverse biosynthetic direction, pH 9, 0.25 mM NADP, 30° C.
Experimental: as §4, §5, §6

B1: E. coli aspartate kinase III LysC, wild type, His-tagged, SEQ ID NO: 4 (Escherichia coli K-12) (protein)
chain: MSEIVVSKFGGTSVADFDAMNRSADIVLSDANVRLVVLSASAGITNLLVALAEGLEPGERFEKLDAIRNIQFAILERLRYPNVIREEIERLLENITVLAEAAALATSPALTDELVSHGELMSTLLFVEILRERDVQAQWFDVRKVMRTNDRFGRAEPDIAALAELAALQLLPRLNEGLVITQGFIGSENKGRTTTLGRGGSDYTAALLAEALHASRVDIWTDVPGIYTTDPRVVSAAKRIDEIAFAEAAEMATFGAKVLHPATLLPAVRSDIPVFVGSSKDPRAGGTLVCNKTENPPLFRALALRRNQTLLTLHSLNMLHSRGFLAEVFGILARHNISVDLITTSEVSVALTLDTTGSTSTGDTLLTQSLLMELSALCRVEVEEGLALVALIGNDLSKACGVGKEVFGVLEPFNIRMICYGASSHNLCFLVPGEDAEQVVQKLHSNLFE
[1]
  Km: 600 µM

B2: Metallosphaera sedula succinic semialdehyde reductase Ms-SSR variant N43H, SEQ ID NO: 227 (Metallosphaera sedula DSM 5348; N43H) (protein)
chain: MKAAVLHTYKEPLSIEDVNISQPKAGEVKIKVKATGLCHSDVHVFEGKTPVPPPVVAGHEISGIVEEVGPGVTRVKPGDRVISAFIHPCGKCGNCVAGKENLCETFSQVRLKGVMPDGTSRLSKDGKEIRTFLGGGFAEYAIVGENALTRVPEDMDLEKVAVLGCAGLTGYGAISSSKIEPGDTVAVIGVGGVGLSTIQLLRASGAGRIIAVGTKKWKLDRAMELGATDVVNSKEIDPVKAIKEITGGGPQVVIEAGGNEDTIHMALDSVRIGGKVVLVGLPPATAMIPIRVASIVRGGIEVVGNYGGRPRVDMPKLLELVRQGRYDPSRLVTGRFRLEEINEAVKMLEEGEAIRSLIIP
[2]
  Km: 2500 µM

B3: Metallosphaera sedula succinic semialdehyde reductase Ms-SSR, wild type, SEQ ID NO: 76 (Metallosphaera sedula DSM 5348) (protein)
chain: B2 chain with H43N
[3]
  Km: 1100 µM

B4: Metallosphaera sedula succinic semialdehyde reductase Ms-SSR variant H39R, SEQ ID NO: 225 (Metallosphaera sedula DSM 5348; H39R) (protein)
chain: B2 chain with H39R, H43N
[4]
  Km: 500 µM

B5: Metallosphaera sedula succinic semialdehyde reductase Ms-SSR variant H39R N43H, SEQ ID NO: 81 (Metallosphaera sedula DSM 5348; H39R/N43H) (protein)
chain: B2 chain with H39R
[5]
  Km: 400 µM

B6: E. coli aspartate semialdehyde dehydrogenase Asd variant E241Q T136N, SEQ ID NO: 231 (Escherichia coli K-12; E241Q/T136N) (protein)
chain: MKNVGFIGWRGMVGSVLMQRMVEERDFDAIRPVFFSTSQLGQAAPSFGGTTGTLQDAFDLEALKALDIIVTCQGGDYTNEIYPKLRESGWQGYWIDAASSLRMKDDAIIILDPVNQDVITDGLNNGIRTFVGGNCNVSLMLMSLGGLFANDLVDWVSVATYQAASGGGARHMRELLTQMGHLYGHVADELATPSSAILDIERKVTTLTRSGELPVDNFGVPLAGSLIPWIDKQLDNGQSRQEWKGQAETNKILNTSSVIPVDGLCVRVGALRCHSQAFTIKLKKDVSIPTVEELLAAHNPWAKVVPNDREITMRELTPAAVTGTLTTPVGRLRKLNMGPEFLSAFTVGDQLLWGAAEPLRRMLRQLA
[6]
  Km: 250 µM

B7: E. coli aspartate semialdehyde dehydrogenase Asd variant E241G, SEQ ID NO: 58 (Escherichia coli K-12; E241G) (protein)
chain: B6 chain with N136T, Q241G
[7]
  Km: 180 µM
  Vmax: 0.09 µmol/mg/min

B8: E. coli aspartate semialdehyde dehydrogenase Asd variant E241A, SEQ ID NO: 54 (Escherichia coli K-12; E241A) (protein)
chain: B6 chain with N136T, Q241A
[8]
  Km: 378 µM
  Vmax: 0.09 µmol/mg/min

B9: E. coli aspartate semialdehyde dehydrogenase Asd variant E241H, SEQ ID NO: 60 (Escherichia coli K-12; E241H) (protein)
chain: B6 chain with N136T, Q241H
[9]
  Km: 800 µM
  Vmax: 0.10 µmol/mg/min

B10: E. coli aspartate semialdehyde dehydrogenase Asd variant E241M, SEQ ID NO: 64 (Escherichia coli K-12; E241M) (protein)
chain: B6 chain with N136T, Q241M
[10]
  Km: 430 µM
  Vmax: 0.15 µmol/mg/min

B11: E. coli aspartate semialdehyde dehydrogenase Asd variant E241Q, SEQ ID NO: 66 (Escherichia coli K-12; E241Q) (protein)
chain: B6 chain with N136T
[11]
  Km: 520 µM
  Vmax: 0.39 µmol/mg/min

B12: E. coli aspartate semialdehyde dehydrogenase Asd variant E241C, SEQ ID NO: 56 (Escherichia coli K-12; E241C) (protein)
chain: B6 chain with N136T, Q241C
[12]
  Km: 500 µM
  Vmax: 0.18 µmol/mg/min

B13: E. coli aspartate semialdehyde dehydrogenase Asd variant E241I, SEQ ID NO: 62 (Escherichia coli K-12; E241I) (protein)
chain: B6 chain with N136T, Q241I
[13]
  Km: 230 µM
  Vmax: 0.10 µmol/mg/min
